# Patent US20260151494A1
# Positions count from the first letter of the chain named.
# B1: CD71-binding FN3 domain SEQ ID NO: 297 (designed binder)
# chain: MSLPAPKNLVVSRVTEDSARLSWTAPDAAFDSFEISYFENTWYGEAIVLTVPGSERSYDLTGLKPGTEYSVRIFGVKGGNFSFPLSAIFTT
# B2: CD71-binding FN3 domain SEQ ID NO: 238 (designed binder)
# chain: B1 chain with S36G, T41D, W42Y, Y43F, S70V, R72F, F74G, N80K, F81W, F83A
# B3: CD71-binding FN3 domain SEQ ID NO: 327 (designed binder)
# chain: B1 chain with S36G, F38W, T41A, W42Y, Y43K, S70W, R72Q, F74G, F81W, F83A
# B4: CD71-binding FN3 domain SEQ ID NO: 300 (designed binder)
# chain: B1 chain with S36G, N40A, W42P, Y43N, S70K, R72F, F74G, N80R, F81W, F83K
# B5: CD71-binding FN3 domain SEQ ID NO: 239 (designed binder)
# chain: B1 chain with S36V, F38Q, T41S, W42A, S70W, R72Q, F74G, F81W, F83A
# B6: CD71-binding FN3 domain SEQ ID NO: 315 (designed binder)
# chain: B1 chain with S36G, T41L, W42Y, Y43L, S70W, R72Q, F74G, F81W, F83A, F89S
# B7: CD71-binding FN3 domain SEQ ID NO: 301 (designed binder)
# chain: B1 chain with A25T, S36G, T41L, W42Y, Y43L, S70W, R72Q, F74G, F81W, F83A
# B8: CD71-binding FN3 domain SEQ ID NO: 307 (designed binder)
# chain: B1 chain with D31N, S36G, T41L, W42Y, Y43L, S70W, R72Q, F74G, N80T, F83A
# B9: CD71-binding FN3 domain SEQ ID NO: 244 (designed binder)
# chain: B1 chain with S36G, T41L, W42Y, Y43L, S70V, R72F, F74G, N80E, F81Y, F83I
# B10: CD71-binding FN3 domain SEQ ID NO: 329 (designed binder)
# chain: B1 chain with E34D, S36G, N40A, W42Y, S70R, R72W, F74G, N80Y, F81Y, F83N
# B11: CD71-binding FN3 domain SEQ ID NO: 325 (designed binder)
# chain: B1 chain with S36G, T41L, W42Y, Y43L, S70W, R72Q, F74G, F81W, F83A, A87E
# B12: CD71-binding FN3 domain SEQ ID NO: 323 (designed binder)
# chain: B1 chain with S36G, T41L, W42Y, Y43L, S70W, R72Q, F74G, F81W, F83G
# B13: CD71-binding FN3 domain SEQ ID NO: 313 (designed binder)
# chain: B1 chain with S36A, T41D, Y43A, V51I, S70W, R72Q, F74G, F81W, F83A
# B14: CD71-binding FN3 domain SEQ ID NO: 328 (designed binder)
# chain: B1 chain with S36G, E39G, T41L, W42Y, Y43L, S70W, R72Q, F74G, F81W, F83A
# B15: CD71-binding FN3 domain SEQ ID NO: 312 (designed binder)
# chain: B1 chain with S36G, T41L, W42Y, Y43L, V51I, S70W, R72Q, F74G, F81W, F83A
# B16: CD71-binding FN3 domain SEQ ID NO: 330 (designed binder)
# chain: B1 chain with S36G, T41L, W42Y, Y43L, S70W, R72Q, F74G, F81W, F83A, F89V
# B17: CD71-binding FN3 domain SEQ ID NO: 298 (designed binder)
# chain: B1 chain with S36G, T41L, W42Y, Y43L, S70W, R72Q, F74G, G79D, F81W, F83A
# B18: CD71-binding FN3 domain SEQ ID NO: 322 (designed binder)
# chain: B1 chain with S36G, N40I, W42R, V48I, T50F, S70W, R72Q, F74G, F81W, F83A
# B19: CD71-binding FN3 domain SEQ ID NO: 305 (designed binder)
# chain: B1 chain with S36A, N40Q, W42Y, Y43T, S70W, R72Q, F74G, F81W, F83A
# B20: CD71-binding FN3 domain SEQ ID NO: 242 (designed binder)
# chain: B1 chain with S36G, T41L, W42Y, Y43L, E68K, S70W, R72Q, F74G, F81W, F83A
# B21: CD71-binding FN3 domain SEQ ID NO: 304 (designed binder)
# chain: B1 chain with S36G, T41L, W42Y, Y43L, S70V, R72F, F74G, N80V, F81W, F83V
# B22: CD71-binding FN3 domain SEQ ID NO: 316 (designed binder)
# chain: B1 chain with V11I, S36G, T41L, W42Y, Y43L, S70W, R72Q, F74G, F81W, F83A
# B23: CD71-binding FN3 domain SEQ ID NO: 309 (designed binder)
# chain: B1 chain with K7E, S36G, T41L, W42Y, Y43L, S70W, R72Q, F74G, F81W, F83A
# B24: CD71-binding FN3 domain SEQ ID NO: 237 (designed binder)
# chain: B1 chain with S36A, N40R, Y43F, S70W, R72Q, F74G, N80D, F81W, F83K
# B25: CD71-binding FN3 domain SEQ ID NO: 236 (designed binder)
# chain: B1 chain with A25E, S36G, T41L, W42Y, Y43L, S70W, R72Q, F74G, F81W, F83A
# B26: CD71-binding FN3 domain SEQ ID NO: 299 (designed binder)
# chain: B1 chain with S36A, T41L, W42Y, Y43L, S70W, R72Q, F74G, F81W, F83A
# B27: CD71-binding FN3 domain SEQ ID NO: 331 (designed binder)
# chain: MSLPAPKNLVVSRVTEDSARLSWTAPDAAFDSFFIGYLEPQPPGEAIHLYVPGSERSYDLTGLKPGTEYNVTIQGVKVGFPSEPLIANFTT
# B28: CD71-binding FN3 domain SEQ ID NO: 234 (designed binder)
# chain: B27 chain with H48A, V78G, I86V, N88H
# B29: CD71-binding FN3 domain SEQ ID NO: 243 (designed binder)
# chain: B27 chain with V78G, F80E, P81W, E83A, I86S, N88I
# B30: CD71-binding FN3 domain SEQ ID NO: 333 (designed binder)
# chain: B27 chain with K7E, H48A, V78G, E83L, I86V, N88T
# B31: CD71-binding FN3 domain SEQ ID NO: 306 (designed binder)
# chain: MSLPAPKNLVVSRVTEDSARLSWTAPDAAFDSFEIGHFENLYLGEAIVLTVPGSERSYDLTGLKPGIEYWVQIGGVKGGVWSVSLSAIFTT
# B32: CD71-binding FN3 domain SEQ ID NO: 326 (designed binder)
# chain: B31 chain with H37Y, F38W, L41A, L43K, I67T, V83T, S84P
# B33: CD71-binding FN3 domain SEQ ID NO: 324 (designed binder)
# chain: B31 chain with V14I, H37Y, I67T, V80N, V83A, S84P, F89S
# B34: CD71-binding FN3 domain SEQ ID NO: 308 (designed binder)
# chain: B31 chain with L21M, A25T, H37Y, I67T, V80N, V83A, S84P
# B35: CD71-binding FN3 domain SEQ ID NO: 320 (designed binder)
# chain: B31 chain with A5V, H37Y, F38W, L41A, L43K, I67T, V80N, V83A, S84P
# B36: CD71-binding FN3 domain SEQ ID NO: 319 (designed binder)
# chain: B31 chain with D27G, H37Y, I67T, S84P
# B37: CD71-binding FN3 domain SEQ ID NO: 311 (designed binder)
# chain: B31 chain with H37Y, F38W, L41A, L43K, I67T, W70V, Q72F, V80S, V83N, S84P
# B38: CD71-binding FN3 domain SEQ ID NO: 240 (designed binder)
# chain: MSLPAPKNLVVSRVTEDSARLSWTAPDAAFDSFHIWYFEKANEGEAIPLVVPGSERSYDLTGLKPGTEYDVDIGGVKGGAWSIPLGARFTT
# B39: CD71-binding FN3 domain SEQ ID NO: 241 (designed binder)
# chain: MSLPAPKNLVVSRVTEDSARLSWTAPDAAFDSFMIAYDEFIVWGEAVVLTVPGSERSYDLTGLKPGTEYLVEILGVKGGTISGPLSAIFTT
# B40: CD71-binding FN3 domain SEQ ID NO: 314 (designed binder)
# chain: MGSLPAPKNLVVSRVTEDSARLSWTAPDAAFDSFEIGYFENLYLGEAIVLTVPGSERSYDLTGLKPGTEYWVQIGGVKGGNWSAPLSAIFTT
# B41: CD71-binding FN3 domain SEQ ID NO: 235 (designed binder)
# chain: MSLPAPKNLVVSRVTEDSARLSWTAPDAAFDSFEIVYAEPVRFGEAIVLTVPGSERSYDLTGLKPGTEYWVQIGGVKGGNWSAPLSAIFTT
# B42: CD71-binding FN3 domain SEQ ID NO: 303 (designed binder)
# chain: MSLPAPKNLVVSRVTEDSARLSWTAPDAAFDSFWIEYWEGWKSGEAIVLTVPGSERSYDLTGLKPGTEYRVHIWGVKGGIVSWPLSAIFTT
# B43: CD71-binding FN3 domain SEQ ID NO: 332 (designed binder)
# chain: MSLPAPKNLVVSRVTEDSARLSWTAPDAAFDSFEIGYWEGPGGGEAIILVVPGSERSYDLTGLKPGTEYYVQIGGVKGGDWSTPLWATFTT
# B44: CD71-binding FN3 domain SEQ ID NO: 245 (designed binder)
# chain: B43 chain with G36S, G40H, P41T, G42F, G43N, V50F, Q72T, D80A, T83P, T88H
# B45: CD71-binding FN3 domain SEQ ID NO: 310 (designed binder)
# chain: MSLPAPKNLVVSRVTEDSARLSWTAPDAAFDSFEIDYGEYSQAGEAIGLLVPGSERSYDLTGLKPGTEYAVWIGGVKGGFFSTPLEADFTT
# How the values were obtained:
# [1] = molecular target: apical domain of CD71 (Screen 3: 'cynomolgus apical domain of human CD71') (cynomolgus (as paragraph 454 words it; ambiguous)); experiment: primary ELISA, RLU ratio to HSA
# [2] = molecular target: apical domain of CD71 (Screen 3: 'cynomolgus apical domain of human CD71') (cynomolgus (as paragraph 454 words it; ambiguous)); experiment: primary ELISA
Binder,Apical domain:HSA [1],RLU [2]
B1,1030,5.29e+06 RLU
B2,954,6.39e+06 RLU
B3,227,4.24e+06 RLU
B4,406,5.57e+06 RLU
B5,442,5.4e+06 RLU
B6,73,4.4e+06 RLU
B7,216,4.53e+06 RLU
B8,72,5.36e+06 RLU
B9,630,5.23e+06 RLU
B10,128,4.64e+06 RLU
B11,205,4.37e+06 RLU
B12,95,4.22e+06 RLU
B13,835,5.17e+06 RLU
B14,42,3.7e+06 RLU
B15,556,5.31e+06 RLU
B16,92,4.31e+06 RLU
B17,414,5.3e+06 RLU
B18,252,4.99e+06 RLU
B19,495,5.69e+06 RLU
B20,493,4.84e+06 RLU
B21,446,5.5e+06 RLU
B22,442,4.44e+06 RLU
B23,452,5.62e+06 RLU

Binder,Apical domain:HSA [1],RLU [2]
B24,672,5.01e+06 RLU
B25,164,5.32e+06 RLU
B26,614,5.35e+06 RLU
B27,701,6.24e+06 RLU
B28,798,7.51e+06 RLU
B29,582,4.57e+06 RLU
B30,171,6.2e+06 RLU
B31,320,4.74e+06 RLU
B32,215,4.07e+06 RLU
B33,462,4.92e+06 RLU
B34,188,5.26e+06 RLU
B35,290,3.99e+06 RLU
B36,187,4.57e+06 RLU
B37,260,4.66e+06 RLU
B38,71,6.83e+06 RLU
B39,324,6.21e+06 RLU
B40,427,5.25e+06 RLU
B41,558,5.63e+06 RLU
B42,636,5.6e+06 RLU
B43,380,4.94e+06 RLU
B44,610,6.07e+06 RLU
B45,168,4.83e+06 RLU
